Measured values taken from PMC12663545.

Key:
[1] = target: Chloroflexus aurantiacus succinate dehydrogenase (CaSDH) monomer of SdhA, SdhB and SdhC (Chloroflexus aurantiacus J-10-fl (endogenous)); assay: native gel or EMSA
[2] = target: Chloroflexus aurantiacus succinate dehydrogenase (CaSDH) monomer of SdhA, SdhB and SdhC (Chloroflexus aurantiacus J-10-fl (endogenous)); assay: cryo-EM structure

- stoichiometry N [1]: 3
- stoichiometry N [2]: 3
Substance: Chloroflexus aurantiacus succinate dehydrogenase (CaSDH) monomer of SdhA, SdhB and SdhC (complex)
